Measurements as given in patent US11026972B2, “Methods for generating macrophages with enhanced cancer phagocytosis” (Georgia State University Research Foundation, Inc., priority 2016, dated 2021).

Key:
SIRPα = details: following LPS stimulation; cited from earlier work
[1] = tested on: CFSE-labeled CD47^+ or CD47^− RBCs in recipient mice; assay: RBC adoptive transfer and in vivo clearance of CFSE-labeled RBCs; parameters: species or system mouse; details: 24 h
From the text: FIGS. 2A-2E includes data related to macrophage phagocytosis in vivo assessed by adoptive transfer experiments. FIGS. 2A-C are illustrative graphs showing clearance of adoptively transferred CD47-positive (Cd47^+) or CD47-negative (Cd47^−) RBC in recipient mice. […] Error bars are ±SEM. **P<0.01, ***P<0.001 vs. WT mice clearance of Cd47^+ RBCs. […] Mice treated with DSS (1% for SIRPα^−/− mice, 2% for WT and Cd47^−/− mice) for 8 d (d8) were transfused with CFSE-RBCs followed by determination of RBC clearance after 24 h. FACS data of Cd47^+ RBCs and Cd47^− RBCs in different mice at 30 min and 24 h after transfer were selectively shown. Total RBC phagocytosis was calculated based on the rates of CFSE-RBC clearance and the fact that SIRPα^−/− mice eliminate both Cd47^− RBC and Cd47^+ RBC, whereas WT mice and Cd47^−/− mice eliminate only Cd47^− RBCs. […] Mice treated once with IL-17 (10 μg/kg, i.v.) were transfused with CFSE-labeled Cd47^+ or Cd47^− RBCs a day later. Error bars are ±SEM. **P<0.01, ***P<0.001 vs. control or the initial time point. Data presented in each panel represent at least three independent experiments with n≥4, if applicable.
Adoptive transfer and in vivo clearance: CD47-expressing (CD47^+) RBC freshly collected from WT or SIRPα^−/− mice, and CD47-null (CD47^−) RBC collected from CD47^−/− mice were labeled with carboxyfluorescein succinimidyl ester (CFSE). After washing, about 1×10^9 RBC suspended in 200 μl sterile PBS were transfused into recipient mice by intravenous (i.v.) injection. Blood samples (5 μl) were then collected 30 min after the blood transfusion and the CFSE-labeled RBC in the circulation was assessed by FACS analyses. Blood samples (5 μl each) were then collected at later time points to assess the clearance of CFSE-labeled RBC as compared to that found at 30 min. For each sample, at least 50,000 RBC were examined by FACS. […] Clearance of CFSE-labeled cells in the circulation and the spleen were analyzed by FACS analyses of blood samples and splenocytes. […]

B16 melanoma = B16 melanoma pulmonary metastases model; assay type: in vivo, mouse; details: SIRPα^−/− mice
Protocol: Mouse models of B16 melanoma: B16-F10 melanoma cells (American Type Culture Collection) were cultured in DMEM with 8% FBS. B16 melanoma pulmonary metastases were established by intravenous (i.v.) injection of B16 cells (5×10^5, >95% viability) suspended in 100 μl PBS through the tail vein. The mice were allowed to live to reach humane endpoints or sacrificed on day 15 post B16 inoculation for analyses of melanoma formation in the lungs and other organs. To test macrophage eradication of B16 in vivo, recombinant murine IL-17 (20 μg) was given a day after the B16 implantation and then again two additional administrations three and six days later (total 3 administrations). For SIRPα^−/− mice survived first B16 injection, B16 cells (5×10^5) were injected (i.v.) once again three months without further IL-17 administration. […] For serum treatment, WT mice with B16 inoculation were given serum samples (150 μl, every three days, 3×) derived from control mice or B16-eradicated SIRPα^−/− mice. In other experiments, 2×10^7 splenocytes from control mice or B16-eradicated SIRPα^−/− mice were transferred into WT mice. After 10 days, B16 cells were inoculated into the recipient mice and melanoma development was examined.

Molecule	SIRPα expression in macrophages (SIRPα)	clearance of transferred CD47^+ and CD47^− RBCs ([1]; SIRPα^−/− mice, 1% DSS for 8 d or directly injected with IL-17)	clearance of transferred RBCs ([1]; mutant mice treated with IL-17 multiple times and a longer period (d1 and d3))	B16 melanoma (B16 melanoma)
lipopolysaccharide [LPS]	decreased			
IL-17: recombinant murine cytokine interleukin IL-17 (also known as IL-17A), PeproTech (protein, UniProt Q62386 26-158, looked up) Interleukin-17A: AAIIPQSSACPNTEAKDFLQNVKVNLKVFNSLGAKVSSRRPSDYLNRSTSPWTLHRNEDPDRYPSVIWEAQCRHQRCVNAEGKLDHHMNSVLIQQEILVLKREPESCPFTFRVEKMLVGVGCTCVASIVRQAA		~50%	< 5%	eliminated B16 melanoma
